{
  "source": "patent US20250228937A1",
  "about": "“MEDICAMENT FOR TREATMENT AND/OR PREVENTION OF CANCER” (TORAY INDUSTRIES, INC., priority 2021, published 2025)",
  "molecules": {"B1": {"name": "anti-CAPRIN-1 antibody (a) (antibody, V domains shown)", "VH": "AVTLDESGGGLQMSRGGLSLVCKASGFDFSSYQMNWIRQAPGKGLEFVAAINKFGNSTGHGAAVKGRVTISRDNGQSTVRLQLNNLRAEDTAIYFCTKHAYGYCGSGTWCAAGEIDAWGHGTEVIVSS", "VL": "QAASTQPSSVSANPGETVEITCSGGGSYSYGWFQQKSPGSAPVTVIYYNNKRPSDIPSRFSGSKSGSTGTLTITGVQADDEAVYYCGSGDSTDTAVFGAGTTLTVLG"}, "B2": {"name": "anti-CAPRIN-1 antibody (af) (antibody, V domains shown)", "VH": "EVQLVESGGGLVQPGGSLRLSCAASGFSLSSHSLGWVRQAPGKGLEWIGDIRSGGSAYYANWAKGRFTISRDNSKNTLYLQMNSLRAEDTAVYYCTRTNGPSDLTNRLDLWGQGTLVTVSS", "VL": "QVLTQSPSSLSASVGDRVTINCQASQSLYNNENLAWFQQKPGKVPKRLIYGASTLASGVSSRFSGSGSGTEFTLTISSLQCEDFAIYYCLGEFSCGSADCFAFGGGTKVEIK"}, "B3": {"name": "anti-CAPRIN-1 antibody (ah) (antibody, V domains shown)", "VH": "B2 VH", "VL": "EQVLTQSPSSLSASVGDRVTINCQASQSLYNNENLAWFQQKPGKVPKRLIYGASTLASGVSSRFSGSGSGTEFTLTISNLQPEDFAIYYCLGEFSCGSADCFAFGGGTKVEIK"}, "B4": {"name": "anti-CAPRIN-1 antibody (b) (antibody, V domains shown)", "VH": "B2 VH with V2Q, Q3S", "VL": "B2 VL"}, "B5": {"name": "anti-CAPRIN-1 antibody (ag) (antibody, V domains shown)", "VH": "B2 VH with Y94F", "VL": "B2 VL"}, "B6": {"name": "anti-CAPRIN-1 antibody (aj) (antibody, V domains shown)", "VH": "B2 VH", "VL": "B3 VL with Q2I, I87T"}, "B7": {"name": "anti-CAPRIN-1 antibody (ai) (antibody, V domains shown)", "VH": "B2 VH with Y94F", "VL": "B3 VL with Q2I, I87T"}, "B8": {"name": "anti-CAPRIN-1 antibody (ak) (antibody, V domains shown)", "VH": "B2 VH with Y94F", "VL": "B3 VL"}, "B9": {"name": "anti-CAPRIN-1 antibody (j) (antibody, V domains shown)", "VH": "DAELVKPGASVKISCKASGYTFTDHSIHWVQQKPEQGLEWIGYISPGNGNIKYNEKFKGKATLTADKSSSTAYMQLNSLTSEDSAVYFCKRSLGRGGPYYFDYWGQGTTVTVSS", "VL": "DIVLTQAAPSLPVTPGESVSISCRSSKSLLHSNGNTYLYWFLQRPGQSPQLLIYRMSNLASGVPDRFSGSGSGTAFTLRISRVEAEDVGVYYCMQHREYPVTFGSGPN"}, "B10": {"name": "anti-CAPRIN-1 antibody (d) (antibody, V domains shown)", "VH": "QSLEESGGDLVKPGASLTLTCTASGFSFSGSYYMSWVRQAPGKGLEWIAYIYIGDGVTAYANWAKGRFTISKASSTTVTLQMTSLTAADTATYFCARGNKLWGPGTLVTVSS", "VL": "DVVMTQTPASVEAAVGGTVTIKCQASQSISSYLAWYQQKPGQPPKRLIYDASNLDSGVPSRFKGSGSGTDFTITISDLECADAATYYCQCTAVSSATIYGNAFGGGTEVVVK"}, "B11": {"name": "anti-CAPRIN-1 antibody (c) (antibody, V domains shown)", "VH": "AVTLDESGGGLQTPGGGLSLVCKASGFTFSSFDMGWVRQAPGKGLEFVAQINDAGSRTWYATAVKGRATISRDNGQTTVRLQLNNLRAEDTGTYYCTRGSGYVGAGAIDAWGHGTEVIVS", "VL": "AALTQPSSVSANPGETVKITCSGGSGYYGWYQQQKSPGSAPVTVIYQNDKRPSDIPSRFSGSGSGSTNTLTITGVQAEDEAVYFCGRYDSTDSGIFGAGTTLTVL"}, "B12": {"name": "anti-CAPRIN-1 antibody (e) (antibody, V domains shown)", "VH": "AVTLDESGGGLQTPGGALSLVCKASGFTFSGYDMLWVRQAPGKGLEWVAGIGSTGGGTDYGAAVKGRATISRDNGQSTVRLQLNNLRAEDTATYYCAKVAGGCNSGYCRDSPGSIDAWGHGTEVIVS", "VL": "AVTQQPASVSANPGETVKITCSGGGSRNYYGWYQQKSPGSVPVTVIYYDDQRPSNIPSRFSGALSGSTSTLTITGVQADDEAVYFCGSADSNTYEGSFGAGTTLTVL"}, "B13": {"name": "anti-CAPRIN-1 antibody (i) (antibody, V domains shown)", "VH": "GAELVRSGASVKMSCKASGYSFTDYNMYWVKQTPGQGLEWIGYIYPGNGGTNYNQKFKGKATLTADTSSSTAYMQISSLTSEDSAVYFCARDYDDGGYAMDYWGQGTTVTVSS", "VL": "DIQMTQSPASLSASVGETVTITCRASGNIHNYLTWYQQKQGKSPQLLVYNAKTLADGVPSRFSGSGSGTQYSLKINRLQPEDFGSYYCQHFWNIPWTFGGGTKLNSR"}, "B14": {"name": "anti-CAPRIN-1 antibody (o) (antibody, V domains shown)", "VH": "EVQLHQFGAELVKPGASVKISCKASGYTFTDYNMDWVKQSHGKSLEWIGDINPNYDSTSYNQKFKGKATLTVDKSSSTAYMELRSLTSEDTAVYYCARSRSYDYEGFAYWGQGTLVTVSA", "VL": "DIQMTQSPASLSASVGETVTITCRASGNIHNYLAWYQQKQGKSPQLLVYNAKTLADGVPSRFSGSGSGTQYSLKINSLQPEDFGSYYCQHFWSTLTFGAGTKLELKR"}, "B15": {"name": "anti-CAPRIN-1 antibody (z) (antibody, V domains shown)", "VH": "GPDLVKPGASVKISCKASGYSFTAYYMHWVKQSHGKSLEWIGRVNPNNGGTTYNQKFKGKAILTVDKSSSTAYMELRSLTFEDSAVYYCARRIYYGYFDYWGQGTTVTVSS", "VL": "AFFAVSLGQRATISCKASQSVDYDGDSYMNWYQQKPGQPPKLLIYVASNLESGVPARFSGSGSGTDFTLNIHPVEEEDAATYYCQQSNEDPYTFGGGTKLEIKQ"}},
  "note": "Numbering of substitutions follows the chain as printed.",
  "data": [
    {"test_system": "not given", "assay": "not given", "details": "platinum-insensitive patient; bevacizumab combined with a chemotherapeutic versus monochemotherapy; cited from earlier work", "units": {"PFS": "months"}, "values": [
      {"molecule": "bevacizumab", "PFS": 6.7}
    ]},
    {"test_system": "not given", "assay": "not given", "details": "platinum-insensitive patient; bevacizumab combined with a chemotherapeutic; cited from earlier work", "values": [
      {"molecule": "bevacizumab", "OS compared with monochemotherapy": "no significant difference"}
    ]},
    {"molecular_target": "T1, human CAPRIN-1 protein expressed on cell membrane surfaces of human cancer cells (human, UniProt Q14444 2-709)", "T1 construct": "whole, on cells; only a portion of CAPRIN-1 is said to be on the membrane surface", "T1 sequence (looked up)": "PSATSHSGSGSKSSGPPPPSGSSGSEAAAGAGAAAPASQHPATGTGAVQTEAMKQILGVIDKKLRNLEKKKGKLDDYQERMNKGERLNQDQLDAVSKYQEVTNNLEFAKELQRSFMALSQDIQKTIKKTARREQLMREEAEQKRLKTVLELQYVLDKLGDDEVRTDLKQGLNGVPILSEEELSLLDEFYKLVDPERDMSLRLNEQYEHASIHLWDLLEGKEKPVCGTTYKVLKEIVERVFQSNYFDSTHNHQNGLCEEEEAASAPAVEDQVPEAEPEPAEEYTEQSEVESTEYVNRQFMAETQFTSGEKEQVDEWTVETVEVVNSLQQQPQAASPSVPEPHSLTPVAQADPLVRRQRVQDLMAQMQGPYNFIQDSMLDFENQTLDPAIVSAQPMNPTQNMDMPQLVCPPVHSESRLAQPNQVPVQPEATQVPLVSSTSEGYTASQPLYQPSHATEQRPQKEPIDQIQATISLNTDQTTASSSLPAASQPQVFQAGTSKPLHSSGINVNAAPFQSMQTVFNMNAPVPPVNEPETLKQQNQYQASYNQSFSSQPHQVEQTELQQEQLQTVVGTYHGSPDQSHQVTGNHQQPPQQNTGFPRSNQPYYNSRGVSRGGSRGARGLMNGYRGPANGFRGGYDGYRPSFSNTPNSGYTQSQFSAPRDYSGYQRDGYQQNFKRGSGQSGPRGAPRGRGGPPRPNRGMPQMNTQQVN", "assay": "flow cytometry on cancer cells expressing CAPRIN-1", "details": "not given", "values": [
      {"molecule": "B1", "binding result": "binds"},
      {"molecule": "B2", "binding result": "binds"},
      {"molecule": "B3", "binding result": "binds"},
      {"molecule": "B4", "binding result": "binds"},
      {"molecule": "B5", "binding result": "binds"},
      {"molecule": "B6", "binding result": "binds"},
      {"molecule": "B7", "binding result": "binds"},
      {"molecule": "B8", "binding result": "binds"},
      {"molecule": "B9", "binding result": "binds"},
      {"molecule": "B10", "binding result": "binds"},
      {"molecule": "B11", "binding result": "binds"},
      {"molecule": "B12", "binding result": "binds"},
      {"molecule": "B13", "binding result": "binds"},
      {"molecule": "B14", "binding result": "binds"},
      {"molecule": "B15", "binding result": "binds"}
    ]},
    {"test_system": "human breast cancer cells BT474", "assay": "In vivo antitumor effect of anti-CAPRIN-1 antibody and topotecan in BT474 cancer-bearing mice", "design": "species or system NOD-SCID mice", "details": "day 56 after bearing cancer; antibody 10 mg/kg, topotecan low (3 mg/kg) and high (10 mg/kg) dose", "description": "(§1) An in vivo antitumor effect in a cancer-bearing mouse by a combined use of the anti-CAPRIN-1 antibody (anti-CAPRIN-1 humanized antibody #1) produced in Example 1 and topotecan was evaluated.\n(§2) Specifically, the antitumor effect of the combined use of the anti-CAPRIN-1 antibody and topotecan according to the present invention was studied using NOD-SCID mice in which human-derived cancer cells expressing CAPRIN-1 protein were subcutaneously transplanted. Human breast cancer cells BT474 were subcutaneously transplanted at 2×10^7 cells per mouse as a mixture with Matrigel (Sigma) and allowed to grow until a tumor became approximately 154 to 155 mm^3 to prepare cancer-bearing mice. The cancer cells BT474 express CAPRIN-1 protein on cell membrane surfaces, and the anti-CAPRIN-1 antibodies produced in Example 1 were confirmed to react with a portion of CAPRIN-1 present on the cell membrane surfaces. Each anti-CAPRIN-1 antibody produced in Example 1 was administered at 10 mg/kg once a week, four times in total, to the tail veins of eight cancer-bearing mice described above. To the same mice, a low dose (3 mg/kg) or a high dose (10 mg/kg) of topotecan was administered once every four days, four times in total.\n(§3) For a comparative control group, the same dose of the same anti-CAPRIN-1 antibody as above was administered once a week to cancer-bearing mice. Furthermore, for another comparative control group, a low dose (3 mg/kg) or a high dose (10 mg/kg) of topotecan was administered to other cancer-bearing mouse individuals at the same administration intervals. Cancer-bearing mice in a non-treatment group were used as negative controls. After the start of administration, the sizes of cancers in the cancer-bearing mice were measured over time using calipers. The tumor volume of each individual was calculated according to a standard method using a calculation formula: (Length of the major axis of the tumor)×(Length of the minor axis of the tumor)^2×0.5, and the average of the treated group was calculated.", "values": [
      {"molecule": "CC[C@@]1(O)C(=O)OCc2c1cc1n(c2=O)Cc2cc3c(CN(C)C)c(O)ccc3nc2-1", "note": "[topotecan]", "tumor volume compared to that at the start of the administration": "increased"}
    ]},
    {"test_system": "human breast cancer cells BT474", "assay": "In vivo antitumor effect of anti-CAPRIN-1 antibody and topotecan in BT474 cancer-bearing mice", "design": "species or system NOD-SCID mice", "details": "topotecan alone, high dose 10 mg/kg once every four days, four times; day 56 after bearing cancer", "description": "as §1, §2, §3", "units": {"tumor volume, assuming that the tumor volume of the negative control was 100%": "%"}, "values": [
      {"molecule": "CC[C@@]1(O)C(=O)OCc2c1cc1n(c2=O)Cc2cc3c(CN(C)C)c(O)ccc3nc2-1", "note": "[topotecan]", "tumor volume, assuming that the tumor volume of the negative control was 100%": 16}
    ]},
    {"test_system": "human breast cancer cells BT474", "assay": "In vivo antitumor effect of anti-CAPRIN-1 antibody and topotecan in BT474 cancer-bearing mice", "design": "species or system NOD-SCID mice", "details": "topotecan alone, low dose 3 mg/kg once every four days, four times; day 56 after bearing cancer", "description": "as §1, §2, §3", "units": {"tumor volume, assuming that the tumor volume of the negative control was 100%": "%"}, "values": [
      {"molecule": "CC[C@@]1(O)C(=O)OCc2c1cc1n(c2=O)Cc2cc3c(CN(C)C)c(O)ccc3nc2-1", "note": "[topotecan]", "tumor volume, assuming that the tumor volume of the negative control was 100%": 33}
    ]}
  ]
}
